The values that follow come from patent publication US8759482B2, “Kinetically efficient substrate for lipoic acid ligase” (Massachusetts Institute of Technology, priority 2009, dated 2014).

Substrate in this series: CC[C@H](C)[C@H](NC(=O)[C@H](CCC(=O)O)NC(=O)[C@H](Cc1ccccc1)NC(=O)CN)C(=O)N[C@@H](CC(=O)O)C(=O)N[C@@H](CCCCN)C(=O)N[C@H](C(=O)N[C@@H](Cc1c[nH]c2ccccc12)C(=O)N[C@@H](Cc1ccc(O)cc1)C(=O)N[C@@H](CC(=O)O)C(=O)N[C@@H](CC(C)C)C(=O)N[C@@H](CC(=O)O)C(=O)N[C@@H](C)C(=O)O)C(C)C
Briefly: Lp1A-catalyzed lipoylation kinetics (kcat, Km) by HPLC. The following applies: other: synthetic LAP2 peptide, 50 nM Lp1A, 750 μM lipoic acid, 30° C. The format is biochemical, Escherichia coli.

Description: Various concentrations of synthetic LAP2 peptide (not a fusion protein) were lipoylated with 50 nM Lp1A, 750 μM lipoic acid, and 3 mM ATP, and initial reaction rates were measured by HPLC. […] Measurements were performed in triplicate.
Using HPLC to quantify product formation, the kcat and Km values were measured for Lp1A-catalyzed lipoylation of a synthetic LAP2 peptide (without an attached fusion protein).
To measure the kcat and Km values for lipoylation, 50 nM Lp1A was combined with 750 μM lipoic acid, 2 mM ATP, and 5 mM magnesium acetate in DPBS. Varying concentrations of LAP2 (5.5, 11, 22, 44, 88, 176, or 352 μM) were used; 60 μL aliquots were removed from the 30° C. reactions at 5 min intervals, up to 20 min, and quenched with 180 mM EDTA (final concentration). HPLC was used to determine the amount of product in each aliquot, and kinetic parameters were extracted using the Michaelis-Menten equation as described previously.^13,28

B1: Escherichia coli lipoic acid ligase (Lp1A) (Escherichia coli K-12) (protein)
chain: MSTLRLLISDSYDPWFNLAVEECIFRQMPATQRVLFLWRNADTVVIGRAQNPWKECNTRRMEEDNVRLARRSSGGGAVFHDLGNTCFTFMAGKPEYDKTISTSIVLNALNALGVSAEASGRNDLVVKTVEGDRKVSGSAYRETKDRGFHHGTLLLNADLSRLANYLNPDKKKLAAKGITSVRSRVTNLTELLPGITHEQVCEAITEAFFAHYGERVEAEIISPNKTPDLPNFAETFARQSSWEWNFGQAPAFSHLLDERFTWGGVELHFDVEKGHITRAQVFTDSLNPAPLEALAGRLQGCLYRADMLQQECEALLVDFPEQEKELRELSAWMAGAVR
Take B1: the Km turned out to be 13.32 ± 1.78 µM, the kcat came out at 0.22 s⁻¹ and the kcat/Km worked out at 16500 M⁻¹ s⁻¹.

What is called Km is the concentration of substrate that gives half-maximal velocity. One may read the kcat as the number of substrate molecules converted per active site and unit of time at saturation. A word on the kcat/Km: it is the turnover number divided by the Michaelis constant.
